Measurements reported in patent US20140045930A1, “ASSAY FOR ARGINYL HYDROXYLASE ACTIVITY” (priority 2011, published 2014).

target: T1, YcfD (Escherichia coli, UniProt P27431); experiment: Hydroxylation assay by MALDI-TOF MS (peptide substrates, +16 Da mass shift); type: biochemical; conditions: MS based assay; Fe(II) and 2OG dependent
T1 construct: hexa-His (N); made in house; host or cells: E. coli BL21 (DE3), pET28a
T1 sequence (P27431 1-373): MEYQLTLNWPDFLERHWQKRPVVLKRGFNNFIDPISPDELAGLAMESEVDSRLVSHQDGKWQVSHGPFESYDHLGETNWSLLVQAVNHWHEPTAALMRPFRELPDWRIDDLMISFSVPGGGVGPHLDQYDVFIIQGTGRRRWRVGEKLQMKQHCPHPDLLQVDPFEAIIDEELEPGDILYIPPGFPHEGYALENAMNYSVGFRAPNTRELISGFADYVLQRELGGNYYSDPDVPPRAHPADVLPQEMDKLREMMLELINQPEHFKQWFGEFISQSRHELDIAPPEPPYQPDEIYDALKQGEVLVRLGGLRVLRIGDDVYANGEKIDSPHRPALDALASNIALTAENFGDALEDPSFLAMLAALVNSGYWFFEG
Protocol: Assay mixtures (final volume 100 μL in 50 mM Tris-HCl, pH 7.5) contained: enzyme (10 μM), substrate (100 μM), 2OG (160 μM), Fe(II) (200 μM) and ascorbate (2 mM). The reaction mixture was incubated at 37° C. for 30 minutes. The reaction mixture was then placed on ice, 10 μl of 1% formic acid was added to quench the reaction, and the mixture was centrifuged to separate any insoluble material that precipitated during quenching. The resultant soluble mixture (1 μl) and α-cyano-4-hydroxycinnamic acid (CHCA) matrix solution (1 μl) (LaserBio Labs) were double spotted onto a 96 well MALDI sample plate, and when dry analysed using MALDI-TOF MS on a Waters Micromass™ MALDI micro MX™ mass spectrometer in negative ion reflectron mode.
(§1) Using a mass spectrometric (MS) based assay, we then screened YcfD with 21 known peptide fragments of substrates for three human 2OG dependent hydroxylases (PHD2, FIH, JMJD6), that encompasses known hydroxylation sites, including the HIF-1α N- and C-terminal oxygen dependent degradation domain (prolyl-hydroxylation), the HIF-1α C-terminal transcriptional activation domain (asparaginyl hydroxylation), ankyrin repeat domain peptides (asparaginyl hydroxylation), splicing regulatory protein fragments (lysyl5-hydroxylation), and collagen proyl-hyroxylase peptides. […] We then screened other available peptides including a set originally prepared for candidate hydroxylases from Pseudomonas spp., that are potential homologues of the human HIF prolyl-hydroxylases. […] MS-fragmentation analyses, unexpectedly, implied that the predicted hydroxylation occurred at the arginine-residue (Arg-12) at the -3position relative to the C-terminus of the substrate peptide (data not shown). This proposal was supported by ‘alanine scanning’ analyses hydroxylation was assessed for peptides in which substitution of alanine at every position in turn of RLLPAVSEATIRRL. […] We then employed NMR to investigate the regiochemistry of arginine-hydroxylation, employing an octameric peptide (AVSEATIR) containing a single arginine residue to simplify the analyses. This octameric peptide is set out in SEQ ID NO: 12. […] This contrasts with nitric oxide synthase which catalyses hydroxylation of L-arginine to give citrulline and nitric oxide via an Nω-hydroxyarginine intermediate.
Based on the identified peptide substrates for YcfD, we searched the E. coli genome for potential substrates and made a set of peptides. Screening for YcfD activity identified a number of further potential substrate sequences as observed by a +16Da mass shift on products. Examples of the peptide substrates are set out in the Table below.

Row | Compound | hydroxylation by YcfD (+16Da mass shift)
1 | RLLPAVSEATIRRL [14-residue synthetic peptide originally prepared for candidate hydroxylases from Pseudomonas spp; YcfD substrate] | gave a +16Da mass shift

same assay, conditions: peptide substrate incubated with YcfD, +16Da mass shift on products

Row | Compound | % hydroxylation (+16 Da) [%]
2 | AQYPQEVITTVRG [synthetic peptide, protein origin PhoP] | 60
3 | ATVAKCVEALKERFQASLRD [synthetic peptide, protein origin PheT] | 40
4 | ELNREQKWQMMLSKSMRR [synthetic peptide, protein origin CaiF] | 40
5 | KHVQALDLSMRFR [synthetic peptide, protein origin Nicotinate-nucleotide diphosphorylase] | 30
6 | KLLRLFFPLSLRV [synthetic peptide, protein origin PhoQ] | 60
7 | KTPLAVLQSTLRS [synthetic peptide, protein origin PhoQ] | 95
8 | KTPLAVLQSTLRSLR [synthetic peptide, protein origin PhoQ] | 40
9 | KWQMMLSKSMRR [synthetic peptide, protein origin CaiF] | 30
10 | LAVLQSTLRSLRS [synthetic peptide, protein origin PhoQ] | 60
11 | LLRLFFPLSLRV [synthetic peptide, protein origin PhoQ] | 50
12 | LTELNREQKWQMMLSKSMRR [synthetic peptide, protein origin CaiF] | 40
13 | LTHSLKTPLAVLQSTLRS [synthetic peptide, protein origin PhoQ] | 90
14 | NTHRGMGYSLRGL [synthetic peptide, protein origin CreB] | 30
15 | VAKCVEALKERFQASLRD [synthetic peptide, protein origin PheT] | 50
16 | VEALKERFQASLRD [synthetic peptide, protein origin Phenylalanyl-tRNA synthetase] | 40

target: T1, YcfD; experiment: not given; type: biochemical; conditions: not given

Row | Compound | inhibition of YcfD argininyl hydroxylase activity | enhancement of YcfD activity
17 | O=C(O)c1c[nH]c2c(ccc3cccnc32)c1=O [FG0041] | inhibitory | 
18 | O=C(O)CNC(=O)c1nc(Cl)c2ccccc2c1O [FG2216] | inhibitory | 
19 | O=C(O)CNC(=O)C(=O)O [N-oxalylglycine] | inhibitory | 
20 | O=C(O)/C=C/C(=O)O [fumarate] | inhibitory | 
21 | O=c1c(-c2ccc(O)cc2)coc2cc(O)cc(O)c12 [genistein] | inhibitory | 
22 | O=C(O)c1ccnc(C(=O)O)c1 [pyridine-2,4-dicarboxylic acid] | inhibitory | 
23 | O=C(O)c1ccc(C(=O)O)nc1 [pyridine-2,5-dicarboxylic acid] |  | Enhancers of YcfD activity
24 | O=C(O)c1cccc(C(=O)O)n1 [pyridine-2,6-dicarboxylic acid] |  | Enhancers of YcfD activity
25 | O=C(O)CCC(=O)O [succinate] | inhibitory | 

target: T1, YcfD; experiment: NMR analyses of YcfD-catalysed hydroxylation; type: biochemical; conditions: 1H NMR analyses (data not shown)
Excerpt: NMR-analyses used a Bruker AVIII 700 system equipped with an inverse TCI cryoprobe optimised for ^1H observation and running TOPSPIN 2 software. Chemical shifts are reported in ppm relative to D2O (δH 4.72); the deuterium signal was used as an internal lock signal and the HDO signal was reduced by presaturation where necessary.
as §1

Row | Compound | hydroxylation by YcfD observed by 1H NMR
26 | N=C(N)NCCC[C@H](N)C(=O)O [L-arginine] | No hydroxylation
27 | CC(=O)N[C@@H](CCCNC(=N)N)C(=O)O [N-α-acetyl-L-arginine] | No hydroxylation

same assay, conditions: 2D-NMR after incubation with YcfD and HPLC purification

Row | Compound | position of hydroxylation
28 | AVSEATIR [octameric peptide containing a single arginine residue] | at C-3 of the hydroxylated arginine-residue
